Data taken from the supplement of paper PMC10126150.
± gives the standard deviation of the averaged measurements.

System: ATP
Assay: switch fluorescence ratio, 500 uM ATP over buffer (Cy3 cluster intensity, sum of 5 cycles each) (fold (ratio)); higher = stronger signal-on switching upon ATP binding; sequences stand for … in TCGTCGGCAGCGTCAGATGTGTATAAGAGACAGTTTTTTTTTTTTTTTTTTTTTTTTT…TC
Details: aptamer strand: ATP DNA aptamer (quencher-CACCTGGGGGAGTATTGCGGAGGAAGG + anchor), 100 nM annealed; ATP concentration: 500 uM
How it was run: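 Cy3-labelled switching-strand clusters on a modified Illumina MiSeq flow-cell were annealed to 100 nM quencher-labelled ATP aptamer and imaged first in selection buffer, then after 15 min with 500 uM ATP at 22 °C. NaOH stripping and re-annealing separated each of five buffer/ATP cycles, and clusters outside 100-1000 RFU were excluded. The fluorescence ratio sums target-cycle Cy3 intensity over buffer-cycle Cy3 intensity per cluster and averages it per switch-domain sequence.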
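Further: ATP exposure 15 min at 22 °C before imaging.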

Sequence | switch fluorescence ratio
CACTCTACGA | 1.41 ± 0.073
TTCGCGACTT | 0.987 ± 0.029
TGCAGGAATG | 2.17 ± 1.6
ATTGGGTAGT | 0.9765 ± 0.0084
CTTGGTGTTG | 1.04 ± 0.065
TGTTTTGGTT | 0.991 ± 0.025
GGAAAGATAG | 1.022 ± 0.0046
TTAGGTTGGC | 1 ± 0.069
TACTATTTTA | 1 ± 0.016
GAAGATGCGG | 1.0002 ± 0.00028
CGTTGATGCT | 1.01 ± 0.02
TCGGTTTTAC | 1.033 ± 0.0061
TTTAGGGTTA | 1.01 ± 0.016
ACACTTGAAT | 0.996 ± 0.027
TGAGGAGGGC | 1.02 ± 0.08
GTGATGGGTT | 0.953 ± 0.014
GACTGGGGGG | 0.997 ± 0.041
CACTTGCAGA | 0.999 ± 0.013
CGGCTATTAC | 3.64 ± 1.3
GCCCGGGCGC | 1 ± 0.014
TTGCAGGGGA | 1.3 ± 0.38
TGGTGGAGAT | 1.01 ± 0.028
TGAATTAAGT | 1.029 ± 0.003

Sequence | switch fluorescence ratio
AATGCTGGTT | 1.01 ± 0.015
ATAGGAAAAA | 0.963 ± 0.059
GTGGGGTTTG | 1.01 ± 0.041
CCTAGGTAAA | 0.993 ± 0.034
ACGGGTTTTT | 0.999 ± 0.015
ACTAGAGGTT | 1.06 ± 0.039
ATGTGAGGGG | 0.986 ± 0.029
TTAAATGTGT | 1.02 ± 0.018
GATGTAGGTT | 0.98 ± 0.029
ACTTTCCGTT | 1.1 ± 0.05
TAAGCAAAAG | 1.19 ± 0.1
TGGGTATTCG | 0.967 ± 0.029
CGGCTATCTC | 1.381 ± 0.011
AGGGGTACGC | 0.95 ± 0.091
CGAAAGATGT | 0.9857 ± 0.0025
AGGTGCATTT | 1.08 ± 0.02
TTTTTTCCTG | 0.989 ± 0.011
AGGTAATACA | 1.08 ± 0.029
AGGGACGTTC | 0.967 ± 0.024
GTAATTTGTT | 1.01 ± 0.014
AAGGATGGGG | 0.98 ± 0.022
GCGCGTCAAG | 1.012 ± 0.009
TCGATGCTAG | 1.03 ± 0.065

Sequence | switch fluorescence ratio
TTAAAAACCT | 1.65 ± 0.62
GAAAAATTTC | 0.99 ± 0.028
TACTGAAGGG | 1.02 ± 0.031
ACTATTGCCA | 1.04 ± 0.017
GGAATCATAG | 1.06 ± 0.07
TGATATAGAG | 1 ± 0.029
TGGTTAGGTT | 0.966 ± 0.013
GAGGGGACGG | 0.996 ± 0.015
ATGGTACCCT | 1.038 ± 0.0052
TTTTGTGCTG | 0.984 ± 0.052
CGAACGGTTG | 1.0261 ± 1.1e-05
TTAGGGGCAC | 0.993 ± 0.018
CTATAATGAG | 0.9963 ± 0.0014
CAGTCAGGGC | 1.26 ± 0.21
ACTAGATTCT | 0.979 ± 0.013
ACTCGCGGGT | 1.04 ± 0.021
GGGGTTGGCC | 0.986 ± 0.018
GATAGGTAAG | 0.962 ± 0.025
GATAGATTAG | 0.998 ± 0.0038
TATGCTAGTA | 0.992 ± 0.025
ATGCCCGTCG | 1.06 ± 0.043
CGGGTGTTTT | 1.055 ± 0.0089
GGGGGATTGG | 0.999 ± 0.032

Sequence | switch fluorescence ratio
AATTCGTTGG | 0.993 ± 0.026
TTTAGTTGGT | 1 ± 0.08
GGCTAGGGGT | 1.57 ± 0.022
GTCGGGGTTA | 0.989 ± 0.036
ATATTGCTGG | 0.9724 ± 0.0085
GTTTGCGGCA | 1.01 ± 0.027
ACATGTTATA | 1 ± 0.049
CAGTTACGAC | 1.13 ± 0.055
TATCGGGGGA | 0.985 ± 0.061
TAGTCATTGA | 1.012 ± 0.0021
TACGTTATAG | 1.11 ± 0.025
TAGTATAGGA | 0.973 ± 0.056
CGTGGATACT | 1.23 ± 0.057
AATCGGGCAA | 1.34 ± 0.03
GGCGCGGCGG | 1.02 ± 0.068
GAGAATGGGT | 0.981 ± 0.022
GAAGGAGGGG | 1.06 ± 0.036
ATTTCCATGT | 0.978 ± 0.011
TTTTAGTGTC | 0.998 ± 0.072
ATTCCAAGGT | 0.997 ± 0.029
TAGTCGAGGG | 0.971 ± 0.024
TTAATTGTTC | 1.06 ± 0.068
TGCATTTTCG | 1.03 ± 0.049

Sequence | switch fluorescence ratio
AACGTCTTTG | 0.9977 ± 0.0033
TTGGTTGGAC | 1.028 ± 0.0092
AACGGCCATG | 1.02 ± 0.037
AGGGATTGCG | 0.9971 ± 0.0093
TTTTCACCAA | 1.03 ± 0.025
ATTTGGGGGC | 0.973 ± 0.057
AGGGGGCATG | 0.986 ± 0.023
AGAGGCAGCT | 1.03 ± 0.046
CTGTTTTGGT | 1.008 ± 0.0028
TTCTTGTGGG | 1.05 ± 0.057
GCACATTTGC | 0.95 ± 0.079
GTTCGTGATA | 1.05 ± 0.043
CGTTGTATAG | 0.971 ± 0.016
GATTGGGTTT | 0.999 ± 0.019
TCATTGGTT | 0.985 ± 0.021
CTGACTCCAA | 2.94 ± 1.6
CTGTTTATTG | 0.977 ± 0.027
TGCCTCGGGG | 1.042 ± 0.0049
TGGTGTTTTT | 0.992 ± 0.027
GATCTGGTTT | 0.998 ± 0.056
CATTTAAAG | 1.01 ± 0.031
TTGCTTGGGA | 1.04 ± 0.014
ATTATGTGGC | 0.9803 ± 0.0086

Sequence | switch fluorescence ratio
CAGGTTGATG | 1.01 ± 0.032
TGGGCAGGCT | 0.998 ± 0.044
TTCTTTGGGT | 0.947 ± 0.036
GGGAAATTGG | 1 ± 0.031
TTCAGTGTTT | 0.993 ± 0.023
GGGAAGGTGG | 1.04 ± 0.02
TTCAGGGAGG | 1 ± 0.033
GGTTTGAGTA | 1.02 ± 0.074
GGATGTCGCG | 1.0124 ± 0.001
CGGGTGACGA | 1.03 ± 0.04
TTCCGACGAT | 3.15 ± 2.3
ACCGGGTGGG | 1.12 ± 0.15
TTGAGAGCGG | 1.01 ± 0.047
TGGGGCGCTG | 0.981 ± 0.011
TTTTGTATTT | 0.988 ± 0.035
TTCAATTTAG | 0.9954 ± 0.0042
ACAGGGTAGC | 1 ± 0.015
GATATTGTAG | 0.986 ± 0.026
GGTTTTAGGT | 0.988 ± 0.035
TATGATGGGA | 0.9911 ± 0.0093
TTGGTTTTTC | 1.01 ± 0.025
ATTAAGGGGC | 1.02 ± 0.017
GTCTGGTTGA | 1.02 ± 0.033

Sequence | switch fluorescence ratio
TCGTTATTCG | 0.979 ± 0.021
TGGAATTTAG | 1.013 ± 0.00072
CCATGGCCTG | 0.97 ± 0.042
AGACCATAGA | 1.02 ± 0.024
GAAGAATTAA | 1.0278 ± 0.00043
CCTATTGGGT | 1.02 ± 0.013
ACACGGGGGG | 1.04 ± 0.022
CAGGTAGTGC | 1.04 ± 0.096
GGAGTTAAGC | 1.03 ± 0.061
TTGGTAAAAT | 0.978 ± 0.041
ATCAAAGGGG | 1 ± 0.0072
TCGGGGCCTT | 0.998 ± 0.033
ACGGCGCTGG | 1.02 ± 0.017
GGGGATGTAC | 1.07 ± 0.077
TTTCAGAGGG | 0.992 ± 0.011
GTTGGGGGAC | 1.09 ± 0.086
TCCAGACTCT | 1.02 ± 0.011
AAGGGGGCTA | 0.974 ± 0.027
AGCGGGGGTA | 1.01 ± 0.034
